In article PMC4380364:
pIC50: −log10 of the molar value.

Legend:
[1] = biological target: T1, L-selectin (cell surface, Jurkat T lymphocytes) (Homo sapiens?) (UniProt P14151); assay: competition (flow cytometry); conditions: vs 100 nM FITC-DREG56 antibody, 4°C, Jurkat cells, competition with 100 nM FITC-DREG56 for 35 min at 4°C, washed in PBS, 2% PFA fix, SLeX assay in PBS with 1% human serum albumin …
T1 sequence: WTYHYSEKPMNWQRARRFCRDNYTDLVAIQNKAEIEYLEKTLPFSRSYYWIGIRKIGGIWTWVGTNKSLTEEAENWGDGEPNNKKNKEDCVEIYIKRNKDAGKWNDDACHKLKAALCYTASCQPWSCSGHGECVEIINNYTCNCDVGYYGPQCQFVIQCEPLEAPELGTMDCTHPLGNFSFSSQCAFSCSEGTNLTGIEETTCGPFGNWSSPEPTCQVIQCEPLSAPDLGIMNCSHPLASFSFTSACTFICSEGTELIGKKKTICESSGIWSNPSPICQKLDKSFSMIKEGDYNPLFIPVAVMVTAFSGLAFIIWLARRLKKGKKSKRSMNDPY

[2] = biological target: T1, L-selectin (cell surface, Jurkat T lymphocytes); assay: flow cytometry titration; conditions: FITC-labeled, Jurkat cells, competition with 100 nM FITC-DREG56 for 35 min at 4°C, washed in PBS, 2% PFA fix, SLeX assay in PBS with 1% human serum albumin …, scale: apparent affinity relative to LS-Multi-Aptamer

“TAGCCAAGGTAACCAGTACAAGGTGCTAAACGTAATGGCTTCGGCTTAC [LS-Aptamer (monovalent)]” was tested, and the pIC50 [1] was under 6.00 and the binding signal [2] was 0.001.
